According to IntAct's records for PubMed 18511562:

B1: Charged multivesicular body protein 4a (Homo sapiens), Q9BY43 (parent)
chain: MSGLGRLFGKGKKEKGPTPEEAIQKLKETEKILIKKQEFLEQKIQQELQTAKKYGTKNKRAALQALRRKKRFEQQLAQTDGTLSTLEFQREAIENATTNAEVLRTMELAAQSMKKAYQDMDIDKVDELMTDITEQQEVAQQISDAISRPMGFGDDVDEDELLEELEELEQEELAQELLNVGDKEEEPSVKLPSVPSTHLPAGPAPKVDEDEEALKQLAEWVS

Variants of: B1
Conditions: with pdc6i_human PDCD6IP

Effect of a mutation on the interaction, disrupting interaction:
MSGLGRLFGKGKKEKGPTPEEAIQKLKETEKILIKKQEFLEQKIQQELQTAKKYGTKNKRAALQALRRKKRFEQQLAQTDGTLSTLEFQREAIENATTNAEVLRTMELAAQSMKKAYQDMDIDKVDELMTDITEQQEVAQQISDAISRPMGFGDDVDEDELLEELEELEQEELAQELLNVGDKEEEPSVKLPSVPSTHLPAGPAPKVDEDEEAAKQLAEWVS [L214A]
MSGLGRLFGKGKKEKGPTPEEAIQKLKETEKILIKKQEFLEQKIQQELQTAKKYGTKNKRAALQALRRKKRFEQQLAQTDGTLSTLEFQREAIENATTNAEVLRTMELAAQSMKKAYQDMDIDKVDELMTDITEQQEVAQQISDAISRPMGFGDDVDEDELLEELEELEQEELAQELLNVGDKEEEPSVKLPSVPSTHLPAGPAPKVDEDEEALKQAAEWVS [L217A]
MSGLGRLFGKGKKEKGPTPEEAIQKLKETEKILIKKQEFLEQKIQQELQTAKKYGTKNKRAALQALRRKKRFEQQLAQTDGTLSTLEFQREAIENATTNAEVLRTMELAAQSMKKAYQDMDIDKVDELMTDITEQQEVAQQISDAISRPMGFGDDVDEDELLEELEELEQEELAQELLNVGDKEEEPSVKLPSVPSTHLPAGPAPKVDEDEEALKQLAEAVS [W220A]
